# Measurements published in the nanobody polyreactivity screen of Harvey et al. (2022).
# Assay: yeast display, Sf9 membrane polyspecificity reagent, FACS + sequencing; frameworks hold sequencing errors
# In short: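 A nanobody's polyreactivity label depends on the gate it was sorted from. Yeast display cells were stained with 10% biotinylated, detergent-solubilized Sf9 membrane reagent for 1 hour at 4 °C, enriched on streptavidin microbeads and sorted by FACS. The low and high (top ~1%) gates were set on anti-HA fluorescence for expression and streptavidin fluorescence for reagent binding.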
row,Sequence,polyreactivity (PSR sort gate)
1,QVQLVESGGGLVQAGGSLRLSCAASGRTFVYNVMGWYRQAPGKERELVAAISSGGSTNYADSVKGRFTISRDNGKNTVYVQMNSLKPEDTAVYYCNAGTLYYRYRWGHYYDSWGQGTQVTVSS,low polyreactivity
2,QVQLVESGGGLVQAGGSLRLSCGASGSTFAYYTMGWYRQAPAKERELVAAITSGGRTSYAESVKGRFTISRDNAKNTVYLQMNSLKPEDTAVYYCAKGRKPGYYYWGQGTQVTVSS,high polyreactivity
3,QVQLVESGGGLVQAGGSLRLSCAASGGIFERNDMGWYRQAPGKERELVAGISSVGSTNYADSVKGRFTISRDNAKNTVYLQMNSLKPEDTAVYYCAAPTKREFRYLRYDYWGQGTQVTVSS,low polyreactivity
4,QVQLVESGGGLVQAGGSLRLSCAASGSTFAVYAMGWYRQPPGKERELVAAITWSGGSTYYADSVKGRFTISRDNAKNTVYLQMNSLKPEDTAVYYCAAVVVRFIYVYFEFEWGQGTQVTVSS,low polyreactivity
5,QVQLVESGGGLVQAGGSLRLSCAASGRTFYHYAMGWYRQAPGKESELVAAIDWSTASTYYADSVKGRFTISRDNAKNTVYLQMNSLKPEDTAVYYCATDTAILINFVLYDYWGQGTQVTVSS,low polyreactivity
6,QVQLVESGGGLVQAGGSLRLSCAASGLTFAANAMGWYRQAPGKERELVAAITSSGGSTYYADSVKGRFTISRDNAKNTVYLQMNSLKPEDTAVYYCAARASRPRFGYWGQGTLVTVSS,high polyreactivity
7,QVQLVESGGGLVQAGGSLRLSCAASGFIFSTYVMGWYRQAPGKERELVAAISASGGRTYYADSVKGRFTISRDTAKNTVYLQMNSLKPEDTAVFYCAAEITDTYRWALNYWGQGTQVTVSS,high polyreactivity
8,QVQLVESGGGLVQAGGSLRLSCAASGFTFWDYAMGWYRQAPGKERELVAAISSRGTRTYYADSVKGRFTISRDNAKNTVYFQMNSLKPEDTAVYYCATAIPDPDYIHNYWGQGTQVTVSS,high polyreactivity
9,QVQLEESGGGLVQAGGSLRFSCAASGSIFDYNAMGWYRQAPGTERELVAAITYSGGTTYADSVKGRFTISRDNAKNTVYLQMNSLKPEDTAVDYCAATSYDRFAYYYWGQGTQVTVSS,low polyreactivity
10,QVQLVESGGGLVQAGGSLLLSCAPSGRTFPLNAMGWSRQAPGKERELVAAITWSGGRTYYADSVKGRFTISRDNAKNTVYLQMNSLKPEDTAVYYCAAKRTTWKIQSGYDYWGKGTQVTVSS,low polyreactivity
11,QVQLVESGGGLVQAGGSLRLSCAASGRTFYRYAMGWYRQAPGKEREFVAAISGSGGRTYYADSVKGRFTISRDNAKNTVYLQMNSLKPEDTAVYYCNAYPHAYTGSTREGDYWGQGTQVTVSS,high polyreactivity
12,QVQLVESGGGLVQAGGSLRLICAASGRTFGVYAMGWYRQAPGKERELVADITSGGGTYYADSVKGRFTILRDNAKNTFYLQMNSLKPEDTAVYYFAARKWYYAYDYWGQGTQVTVSS,high polyreactivity
13,QVQLVESGGGLVQAGGSLRLSCAASGRTFWYNAMGWYRQAPGKERELVATISPGGRTYYADSVKGRFTISRDNAKNTVYLQMNSVKPEDTAVYYCDASSSFSRYGVVPYYYWGQGTQVTVSS,high polyreactivity
14,QVQLVESGGGLVQAGGSLRLSCAASGSIFVTYAMGWYRQAPGKERELVAAISTSGGSTYADSVKGRFTISRDNAKNTVYLQMNSLKPEDTAVYYCNADDPGYAVPWYWFKYDYWGQGTQVTVSS,low polyreactivity
15,QVQLVESGGGLVQAGGSLRLSCAASGSTFVIYAMGWYRQAPGKERELVASIRGRTGSTYYADSVKGRFTISRDNAKNTVYLQMNSLKPEDTAVYYCAATPGYKSKMDYWGQGTQVTVSS,high polyreactivity
16,QVQLVESGGGLVQAGGSLRLSCAASGFTFYTYVMGWYRQAPGKERELVAAITSGVSTNYADSVKGRFTISRDNAKNTVYLQMNSLKPEDTAVYYCAAGSDFQYGHDYWGQGTQVTVSS,low polyreactivity

row,Sequence,polyreactivity (PSR sort gate)
1,QVQLVESGGGLVQAGGSLRLSCAASGLTFYYNAMGWYRQAPGKERELVAAITRGTSTHYADSVKWRFTISRDNAKNTVYLQMNSLKPEDTAVYYCAAPYRYSWWRGDYWGQGTQVTVSS,high polyreactivity
2,QVQLVDSGGGLVQAGGSLRLICAASGITFRHYAMGWYRTAPGKERELVAAITRRGGSTRYADSVKGRFTISRDNAKNTVYLQMNSLKPEDTAVYYCNAVYWSEGDWSERRDYWGQGTQVTVSS,high polyreactivity
3,QVQLVESGGGLVQAGGSLRFSCAASGSIFGTYAMGWYRQAPGKERELVAAITGNGGRTYYADSVKGRFTISRDNAKNTVYLQMNSLKPEDTAVYYCAKATSRRGFYYWGQGTQVTVSS,high polyreactivity
4,QVQLVESGGGLVQAGGSLRLSCAASGRIFTYYAMGWYRQAPGKERELVAAISYSGSSTYYADSVKGRFTISRDNAKNTVYLQMNSLKPEDTAVYYCAAAPSGHYLAYGYWGQGTQVTVSS,high polyreactivity
5,QVQLVESGGGLVQAGGSLRLSCASSGIIFYTYAMGWYRQAPGKERELDAAITQTSAPTYYADSVKGRFTISRDNAKNTVYLQMNSLNPEDTAVYYCAAVPSYRVQGGRMYYWGQGTQVTVSS,high polyreactivity
6,QVHLVESGGGLVQAGGSLRLSCAASGSILDEYAMGWYRQPPGKESELVAAISSSGTSTYYADSVKRRFTISRDNAKNTDYLQMNSLKPEDTAVYDCARVKQHRSHRVPGDDYWGQGTQVTVSS,low polyreactivity
7,QVQLVESGGGLVQAGGSLRLSCAASGITFPVYTMGWYRPAPVKERELVAAITSSGGSTYYADSVKGRFTISRDNAKNTVYLQMISLKQEDTAVYYCAARDYGRHHSYGYWGQGTQVTVSS,high polyreactivity
8,QVQLVESGGGLVQAGGSLRLSCAASGFIFANYAMGWYRQAPGKERELVAVISQRGGRTYYADSVKGRFTISRDNAKNTVYLQMNSLKPEDTAVYYCNAVTGEWGQGTQVTVSS,low polyreactivity
9,QVQLQESGGGLVQAGGDLRLSCAASGNIFRDYIMGWYREAPGKEREFVAGIDRGANPNYADSVKGRFTISRDNAKNTVYLQMNSLKPEDTAVYYCAVHTAIVADFIYWGQGTQVTVSS,low polyreactivity
10,QVQLVESGGGLVQAGGSLRLSCAASGFTFYRNAMGWYRQAPGKEREMVAAISWSGDSTYYADSVKGRFTISRDNAKNTVYLQMNSLNPEDTAVYYCAKERYFYYPWVTTYTSNYWGQGTQVTVSS,low polyreactivity
11,QDQLVESGGGLVQAGGSLRLSCAASGSTFRGNAKGWYRQAPGKERELVAAITGSGGRRYYADSVKGRFTISRDYAKNTVYLQMNSLKPEDTAVYYCAAVYYGYRDRTDYGYWGQGTQVTVSS,high polyreactivity
12,QVQLVESGGGLVQAGGSLRLSCAASGRTFLYYVMGWYRQAPGKERELVAAITNRGGSTYYADSVKGRFTISRDNAKNTVYLQLNSLKPEDTAVYYCNAPYGVYWSSTYYYWGQGTQVTVSS,high polyreactivity
13,QVQLVESGGGLVQAGGSLRLTCAASALTFVWYAMGWYRQATGKERELVAAIRGGGSTYYADSVKGRFTISRDNAKNTVYLQMNRLIPEDTAVYYCAAQRSPYYTFYYWGQGTQVTVSS,high polyreactivity
14,QVQLVESGGGLVQAGGSLRLSCAASGRTFFGYAMGWYIQAPGKERELVAAITWNGGRTYYADSVRGRFTISRDNAKNTVYLQMNSLKPEDTAVYYCAARVGDGVRRYNYWGQGTQVTVSS,high polyreactivity
15,QVQLVESGGGLVQAGGSHPLSCAASGRTFGHNAMRSYRQAPGKERELVAAITRSGGRTFYADSVKGRFTISRDNAMNTVYLQMNSLKPEDTAVFYCATDYYRYRDYAYYWLDYNYWGQGTQVTVSS,high polyreactivity
16,QVQLVESGGGLVQAGRSLRLSCAASGIIFAFYAMGWYRQAPGKERELVAAISIDGSTYYADSVKGRFTISRDNAKNTVYLQMNSLKPEDTAVYYCAAQYLNVYYWEDYWGQGTQVTVSS,low polyreactivity
